Experimental data from publication PMC3602352.

Legend:
[1] = target: V66A CzrA (Staphylococcus aureus); test: SEC
[2] = target: L68A CzrA (Staphylococcus aureus); test: SEC
[3] = target: V66A/L68V CzrA (Staphylococcus aureus); test: SEC
[4] = target: L68V CzrA (Staphylococcus aureus); test: SEC
V66A CzrA = V66A CzrA (Staphylococcus aureus, UniProt O85142 1-106, V66A); test: fluorescence anisotropy
H96C CzrA = H96C CzrA (Staphylococcus aureus, UniProt O85142 1-106, H96C); test: fluorescence anisotropy

V66A CzrA (natural protein)
stoichiometry N [1]: 2

L68A CzrA (natural protein)
stoichiometry N [2]: 2

V66A/L68V CzrA (natural protein)
stoichiometry N [3]: 2

L68V CzrA (natural protein)
stoichiometry N [4]: 2

B1: 28-bp native CzrO (dsDNA)
DNA 1: TAATATATGAACAAATATTCAGATGAAA
DNA 2: TTTCATCTGAATATTTGTTCATATATTA
binding signal (V66A CzrA): 460 fold tighter than Zn2 wild-type CzrA | binding result (H96C CzrA): binds
